Experimental data: the RNAGym collection of RNA variant scans (doi:10.7554/elife.80360)

B1: HDV Ribozyme (parent)
chain: GGCCGGCAUGGUCCCAGCCUCCUCGCUGGCGCCGGCUGGGCAACAUUCCGAGGGGACCGUCCCCUCGGUAAUGGCGAAUGGGACCCA

Variants of: B1
Assay: self-cleavage, relative activity (ratio to wild type); higher = more cleavage; co-transcriptional

Variant	self-cleavage
U65A G80C	0.123
U65A G80U	0.279
U65A G73C	0.415
U65A G73A	0.342
C66A A70C	0.831
C66A A70U	1.08
C66A A70G	0.745
C64A A77C	0.344
U65G G76C	1.15
C64U G81U	0.313
C64U G81A	0.318
C64U G81C	0.315
C64A C84A	1.15
C64A C84G	0.536
C63A C85U	0.911
C63A C85A	0.618
C64U A87G	1.04
C64A G74A	0.295
C64A G74U	0.327
C64A G74C	0.242
C64U	0.995
C64A	0.908
C64G	0.954
U65C	1.02

Variant	self-cleavage
U65G	0.988
U65A	0.966
C63G C75A	0.111
C63G C75G	0.0489
U65A G81A	0.495
U65C G74U	0.523
U65G A83G	0.698
U65G A83C	0.703
C63G G82A	0.219
C63G G82C	0.136
C63G G82U	0.289
U65C A71U	0.812
U65A C66G	0.932
U65A C66U	0.812
C64A U72A	0.491
C64A U72C	0.465
C64A U72G	0.856
U65C A78U	0.312
C63A C84G	0.759
U65A U69A	0.929
U65A U69C	0.782
U65A U69G	0.806
C64A G73C	0.256
C63G G81U	0.375

Variant	self-cleavage
C63G G81A	0.453
C63G G81C	0.277
C64U C84A	0.801
C64U C84U	0.785
C64U C84G	0.869
C63G A70C	0.415
C63A G76U	1.15
C63A G76C	0.976
C63A G76A	0.875
U65G C66U	0.702
C63G A78C	0.101
C64A U79C	0.636
U65C A70U	0.789
U65C A70C	1.17
U65C A70G	0.705
C63G A87G	0.858
C63G A87C	0.737
C64A G80A	0.611
C63G U72C	0.344
C63G U72A	0.458
U65G G68A	0.772
U65A C86U	0.937
U65A C86A	1.07
U65A C85G	0.604

Variant	self-cleavage
C63U G81A	0.521
C63U G81C	0.151
C63G G74A	0.326
C63A G82A	0.408
C63A G82U	0.467
C63A G74C	0.312
C63A G74U	0.515
C63A G74A	0.478
U65C C84A	0.773
U65C C84G	0.646
U65C C84U	0.703
C64G G74C	0.244
C64G G74U	0.635
U65A A70G	1.05
U65A A87C	1.04
U65A A87G	0.877
C64U G68A	0.821
C64U G68C	0.305
C64G A71G	1.11
C63U A77C	0.352
C63U A70U	0.848
C63A G68A	0.801
C63A G68U	0.764
C63U C85A	0.958

Variant	self-cleavage
C63U C85U	1.01
U65G G80A	0.288
U65C C66G	1.11
U65C C66A	1.18
C64G U65G	0.943
C64G U65C	0.199
C64U C75A	0.242
C64U C75U	0.252
U65C C85A	0.991
C64U G67A	0.92
C64U G67U	0.804
C64A G67A	0.369
C64A G67C	0.277
U65C G67U	0.627
U65C G67A	0.706
U65C G67C	0.984
U65C G76U	1.14
U65C G76A	0.918
U65C G76C	1.09
C66A A77G	0.706
C63G G68A	0.366
C63G G68U	0.504
C64A A78U	0.285
C64A A78G	0.686

Variant	self-cleavage
C64A A78C	0.242
U65G G74C	0.309
U65G G74U	0.424
C63G C84A	1.06
C63G C84U	0.629
C64U G82U	0.486
C64U G82A	0.487
C64U G82C	0.208
C64A G81U	0.379
C64A G81C	0.203
C63U U69G	0.875
C64A U69C	0.782
C63U A71C	1.15
C63U G74C	0.201
C63U G74A	0.546
U65G C84U	0.704
U65G C84G	0.569
C63U C75G	0.0755
C63U C75A	0.106
C63G C86G	0.95
C63U A87G	0.927
C63U A87C	0.894
C63U G73A	0.831
C63G A77C	0.58

Variant	self-cleavage
C63G A77U	0.277
C63G A77G	0.268
C63A C86A	1.05
C63G A83G	0.519
C63A U72C	0.532
C63A U72G	0.369
C63A U72A	0.542
U65G G73U	0.47
U65G G73C	0.289
C64U A78C	0.138
C64U A78G	0.813
C64A A70G	0.749
C64A A70C	0.623
C64A A70U	0.752
C64U G76C	0.905
C64U G76A	1.01
C64U G76U	1.15
C63U G80U	0.224
C63U G80A	0.482
C63U G80C	0.218
C63U C66U	0.816
U65C G81U	0.415
U65C G81A	0.358
C63A G67A	0.35

Variant	self-cleavage
C63A G67U	0.451
C63A G67C	0.544
C64A A87C	0.779
U65A G82A	0.281
U65A G82C	0.614
U65C A77C	0.465
U65C A77G	0.831
U65A A78U	0.396
U65A C75G	0.19
U65A C75U	0.277
C63U U72A	0.864
C63U U72C	0.751
C63U U72G	0.776
C64U G74A	0.535
C63U C64G	0.809
C63U C64A	0.831
C63U C64U	1.08
U65A U79A	0.727
U65G U69A	1.23
U65G U69G	0.942
C64A G68U	0.272
C64A G68C	0.554
U65C C86A	0.673
U65C U69G	1.03

Variant	self-cleavage
U65C U69A	0.989
C63G G76C	0.967
C63G G76A	0.974
C64A C85U	0.72
U65C A87U	1.08
U65C A87G	0.94
C64A A83C	0.332
C64A A83U	0.511
C64G G82A	0.535
U65A G67C	0.705
U65A G67U	0.767
C64G C75A	0.201
C64U G73U	0.345
C64U G73C	0.601
C63U C86U	1.05
C63U C86A	0.96
U65C U72G	0.831
C63A U69A	0.965
C63A U69C	1.12
C63A U69G	0.884
U65G G81C	0.439
U65G G81U	0.248
U65C G73C	0.283
U65A C84G	0.494

Variant	self-cleavage
U65A C84A	0.769
C63A G80A	0.388
C64U U72C	0.612
C64U U72G	0.712
C64G A78U	0.18
U65A G76A	0.976
C63U G76C	0.997
C63U G76A	0.855
C63A G81C	0.188
C63A G81U	0.244
C64G U72C	0.364
C63U U79G	0.54
C63U U79C	0.411
C63U U79A	0.997
C64U A70C	0.956
C64U A70G	0.701
C64G G67C	0.332
C64G G67U	0.365
U65C C75G	0.482
U65C C75A	0.0489
U65C C75U	0.185
U65G C85A	1.11
U65C G68A	0.959
U65A G74A	0.489

Variant	self-cleavage
U65A G74C	0.225
U65G C86A	0.988
U65G C86G	0.752
U65A A71G	0.831
U65A A71C	0.767
U65A A71U	0.76
U65A A83G	0.859
U65A A83C	0.504
U65G A71C	0.755
U65G A71G	0.917
C63A U65C	0.525
C63A U65G	0.914
C63A U65A	0.427
C64U U69G	1.07
C64U U69C	1.17
C64U C85A	1.25
U65G U72C	0.415
U65G U72A	0.739
C64A A71U	0.855
C64A A71C	0.277
C64G A77G	0.434
C64G A77U	0.506
U65C A83G	0.862
U65C A83U	0.369

Variant	self-cleavage
U65C G82A	0.554
U65C G82U	0.567
C64G A83G	0.708
C64G A83U	0.508
U65G C75U	0.212
U65G G67A	0.812
C64G U69A	1.01
C64G A70C	0.536
C64G A70G	0.712
C64U A71C	0.719
C63G C66G	0.201
C63G C66A	0.289
C64G C86G	0.859
C64G C86U	0.845
C64U U65C	0.914
C64U U65G	0.784
C64U U65A	0.984
C64G G73A	0.594
C63G C85G	1.02
C63G C85U	0.92
C64G G81U	0.312
C64G G81A	0.222
U65A G68C	0
C64G G80U	0.443

Variant	self-cleavage
C64G G80A	0.641
C64G G80C	0.305
U65G G82C	0.133
U65G A77C	0.356
C64U C86G	0.972
C64U C86U	0.772
C64A G82A	0.282
C64A G82U	0.409
U65A A77G	0.643
U65A A77C	0.277
C66A A71C	0.866
C66A A71G	0.782
C63G G73C	0.437
C63U G82A	0.534
C63U G82U	0.509
C63U G82C	0.192
U65A U72G	0.399
U65A U72A	0.636
C63G U65G	0.277
C63G U65C	0.151
U65C G80U	0.106
U65C U79G	0.396
U65C U79A	0.644
C63G G67U	0.293

Variant	self-cleavage
C63G G67C	0.342
C63G G67A	0.372
C64G C85G	0.872
C64U A83U	0.361
C64U A83C	0.332
C64A U65G	0.937
C64A U65A	0.895
C63U A83U	0.584
U65G U79G	1.2
U65G U79A	0.306
C63G G80C	0.147
C63G G80U	0.199
C63U G68U	0.8
C63U G68C	0.941
C63U U65A	0.849
C63U U65G	0.96
C64G G68U	0.136
C64G G68A	0.338
C64G U79C	0.623
C63A U79A	0.636
C63A U79C	0.455
C64U C66G	0.748
